Assay results: PMC12828022 (Nature Communications, 2025)
Substitutions are numbered along the chain they refer to. Names and notes keep the numbering of the source.

T1: IL-17RA residues 361-866 (SEFIR domain and SEFEX, as part of the IL-17RB-RA fusion) (human, UniProt Q96F46-1 361-866)
T1 sequence: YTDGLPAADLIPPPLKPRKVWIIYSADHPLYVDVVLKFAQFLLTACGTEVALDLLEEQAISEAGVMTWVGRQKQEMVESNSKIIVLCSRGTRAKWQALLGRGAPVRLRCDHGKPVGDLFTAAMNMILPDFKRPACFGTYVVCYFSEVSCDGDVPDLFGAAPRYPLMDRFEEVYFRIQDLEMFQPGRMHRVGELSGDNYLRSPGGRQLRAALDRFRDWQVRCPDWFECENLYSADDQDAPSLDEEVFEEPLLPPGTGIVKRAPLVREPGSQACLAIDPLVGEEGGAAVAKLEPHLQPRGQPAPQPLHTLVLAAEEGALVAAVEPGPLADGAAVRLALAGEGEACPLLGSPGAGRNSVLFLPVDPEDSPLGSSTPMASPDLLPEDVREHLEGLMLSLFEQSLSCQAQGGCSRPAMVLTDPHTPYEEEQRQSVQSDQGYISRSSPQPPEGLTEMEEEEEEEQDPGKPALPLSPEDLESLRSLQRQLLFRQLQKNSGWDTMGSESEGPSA

T2: ACT1 residues 372-574 (wild type) (human, UniProt O43734-1 372-574)
T2 sequence: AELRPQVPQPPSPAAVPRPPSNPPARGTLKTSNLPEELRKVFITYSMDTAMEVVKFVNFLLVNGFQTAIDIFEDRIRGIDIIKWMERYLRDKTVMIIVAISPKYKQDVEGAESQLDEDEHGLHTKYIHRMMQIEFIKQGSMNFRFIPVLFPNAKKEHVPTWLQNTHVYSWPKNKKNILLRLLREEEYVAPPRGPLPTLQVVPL

B1: ACT1 residues 372-574 Y558F (domain or fragment)
chain: T2 sequence with Y187F
B2: IL-17RB residues 328-484 (SEFIR domain, as part of the IL-17RB-RA fusion) (domain or fragment)
chain: LLPPIKVLVVYPSEICFHHTICYFTEFLQNHCRSEVILEKWQKKKIAEMGPVQWLATQKKAADKVVFLLSNDVNSVCDGTCGKSEGSPSENSQDLFPLAFNLFCSDLRSQIHLHKYVVVYFREIDTKDDYNALSVCPKYHLMKDATAFCAELLHVKQ
B3: IL-17RC-RA fusion (IL-17RC residues 510-705, 3x(GGGS) linker, IL-17RA residues 361-866) (other)
chain: ARGRAALLLYSADDSGFERLVGALASALCQLPLRVAVDLWSRRELSAQGPVAWFHAQRRQTLQEGGVVVLLFSPGAVALCSEWLQDGVSGPGAHGPHDAFRASLSCVLPDFLQGRAPGSYVGACFDRLLHPDAVPALFRTVPVFTLPSQLPDFLGALQQPRAPRSGRLQERAEQVSRALQPALDSYFHPPGTPAPGGGGSGGGSGGGSYTDGLPAADLIPPPLKPRKVWIIYSADHPLYVDVVLKFAQFLLTACGTEVALDLLEEQAISEAGVMTWVGRQKQEMVESNSKIIVLCSRGTRAKWQALLGRGAPVRLRCDHGKPVGDLFTAAMNMILPDFKRPACFGTYVVCYFSEVSCDGDVPDLFGAAPRYPLMDRFEEVYFRIQDLEMFQPGRMHRVGELSGDNYLRSPGGRQLRAALDRFRDWQVRCPDWFECENLYSADDQDAPSLDEEVFEEPLLPPGTGIVKRAPLVREPGSQACLAIDPLVGEEGGAAVAKLEPHLQPRGQPAPQPLHTLVLAAEEGALVAAVEPGPLADGAAVRLALAGEGEACPLLGSPGAGRNSVLFLPVDPEDSPLGSSTPMASPDLLPEDVREHLEGLMLSLFEQSLSCQAQGGCSRPAMVLTDPHTPYEEEQRQSVQSDQGYISRSSPQPPEGLTEMEEEEEEEQDPGKPALPLSPEDLESLRSLQRQLLFRQLQKNSGWDTMGSESEGPSA
B4: IL-17RB-RA fusion (IL-17RB residues 328-484, 16-residue linker, IL-17RA residues 361-866) (other)
chain: LLPPIKVLVVYPSEICFHHTICYFTEFLQNHCRSEVILEKWQKKKIAEMGPVQWLATQKKAADKVVFLLSNDVNSVCDGTCGKSEGSPSENSQDLFPLAFNLFCSDLRSQIHLHKYVVVYFREIDTKDDYNALSVCPKYHLMKDATAFCAELLHVKQGGGSGGGSGGGSGGGSYTDGLPAADLIPPPLKPRKVWIIYSADHPLYVDVVLKFAQFLLTACGTEVALDLLEEQAISEAGVMTWVGRQKQEMVESNSKIIVLCSRGTRAKWQALLGRGAPVRLRCDHGKPVGDLFTAAMNMILPDFKRPACFGTYVVCYFSEVSCDGDVPDLFGAAPRYPLMDRFEEVYFRIQDLEMFQPGRMHRVGELSGDNYLRSPGGRQLRAALDRFRDWQVRCPDWFECENLYSADDQDAPSLDEEVFEEPLLPPGTGIVKRAPLVREPGSQACLAIDPLVGEEGGAAVAKLEPHLQPRGQPAPQPLHTLVLAAEEGALVAAVEPGPLADGAAVRLALAGEGEACPLLGSPGAGRNSVLFLPVDPEDSPLGSSTPMASPDLLPEDVREHLEGLMLSLFEQSLSCQAQGGCSRPAMVLTDPHTPYEEEQRQSVQSDQGYISRSSPQPPEGLTEMEEEEEEEQDPGKPALPLSPEDLESLRSLQRQLLFRQLQKNSGWDTMGSESEGPSA

Experiments:
[1] = biological target: T1, IL-17RA residues 361-866 (SEFIR domain …); assay: cryo-EM structure
[2] = biological target: T2, ACT1 residues 372-574 (wild type); assay: negative-stain EM
[3] = biological target: T2, ACT1 residues 372-574 (wild type); assay: SEC

binding result [1]	other results	Binder
binds	–	B1
binds	–	B2
–	binding result [2]: binds	B3
–	binding result [3]: binds	B4
